Measured values taken from patent US20190309056A1 (VIB VZW, published 2019).
Substitutions are numbered along the chain they refer to.

B1: anti-MIF ISVD D4 (VHH)
VHH: KVQLVESGGGLVQDGGSLRLSCAASGRTASIQVMGWFRQAPGKEREFVGNIGWNYGLTLYPDSVKGRFTISRDNAKNTVYLQMNNLKPEDTAVYYCAARIGTTTYDYWGQGTQVTVSS
notes: Family III; Expressed from pAX100, purified by IMAC
B2: anti-MIF ISVD A2 (VHH)
VHH: B1 VHH with K1E, P61A, S63P, T103I
notes: as for B1
B3: anti-MIF ISVD D2 (VHH)
VHH: B1 VHH with K1E, Q32H, V33T, K43Q, E46G, P61A, T104P
notes: as for B1
B4: anti-MIF ISVD H5 (VHH)
VHH: EVQLVESGGGLVQPGGSLRLSCVASGFTFRTYAMSWVRQAPGKGSEWVSTINNGGGVTGYADSVEGRFTISRDNAKNTLYLQMNSLKPEDTAVYYCAKGTSRGQGTQVTVSS
notes: Family IV; Expressed from pAX100, purified by IMAC
B5: anti-MIF ISVD D12 (VHH)
VHH: EVQLVESGGGLVQAGGSLRLSCAASGRTISSYIVGWFRQAPGKEREFVANIGWSGSMPLYADSVKGRFTIFRDNAKNTVYLEMNKLKPEDTAVYYCAARGAGQLTNDYWGQGTQVTVSS
notes: Family VI; Expressed from pAX100, purified by IMAC
B6: anti-MIF ISVD E5 (VHH)
VHH: EVQLVESGGGLVHAGGSLRLSCAASGRTFSSYFMGWFRQAPGKAREFVANINFSGGTTVYASSVKGRFTISRDNSKNTVYLQMNSVKPEDTAVYYCVARGLTQDYDYWGQGTQVTVSS
notes: Family V. Expressed from pAX100, purified by IMAC; also called Nb E5
B7: anti-MIF ISVD H9 (VHH)
VHH: B6 VHH with F29S, S31T, M83L, V97S, T102N, D104E, Y107F
notes: Family V. Expressed from pAX100, purified by IMAC
B8: anti-MIF ISVD C10 (VHH)
VHH: EVQLVESGGGLVQAGGSLRLSCAASGRTSSIVAIGWFRQAPGKEREFVSNIGWKFGSTVYVDSVKGRFTISKDNAKNTVYLQMNSLKPEDTAVYRCAARSDGRVYDSWGQGTQVTVSS
notes: Family II; Expressed from pAX100, purified by IMAC
B9: anti-MIF ISVD B5 (VHH)
VHH: EVQLVESGGGLVQAGGSLRLSCAASGRSFSNYIMGWFRQAPGKEREFVANISWNYGTTFYADSVKGRFTISGDSAKNTVYLQMTSLKPEDTAVYYCAARPVRGGRNFDYWGQGTQVTVSS
notes: Family I. Expressed from pAX100, purified by IMAC
B10: anti-MIF ISVD E10 (VHH)
VHH: EVQLVESGGGSVQAGDSLRLSCAASGRTLSNSIMGWFRQAPGKEREFVANINWSGTSRLYADSVKGRFTISRDNTKSTVYLQMNSLKPEDTAIYYCAARSSTMSATDYWGQGTQVTVSS
notes: Family VII; Monovalent llama VHH expressed in E. coli from pAX100 and purified by IMAC (His-Trap) and gel filtration; also called Nb E10; monovalent E10
B11: anti-MIF ISVD F10 (VHH)
VHH: B1 VHH with K1E, D73G, T78A
notes: as for B1

Molecular target: T1, recombinant human Macrophage Migration Inhibitory Factor (MIF 2-115) (human, UniProt P14174 2-115)
T1 construct: rhMIF bought from R&D Systems; The background describes MIF as a homotrimer but also as monomer, dimer or higher oligomers; In the cell assays (THP-1, human PBMC) the MIF is the cells' own; also called rhMIF; human MIF
Assay: SPR (BIAcore T200), rhMIF immobilised on CM5 chip, 1:1 Langmuir model
Experimental: Surface plasmon resonance (SPR) experiments were performed on a BIAcore T200 system (GE Healthcare). Recombinant mouse MIF (rmMIF) or rhMIF (R&D systems) was immobilized on a CM5 chip (GE Healthcare). Briefly, the carboxylated dextran matrix was activated by injection of 0.2 M N-ethyl-N′-(3-[…]) carbodiimide (EDC) and 0.05 M N-hydroxysuccinimide (NHS) at a flow rate of 5 μl/min for 7 min. A rmMIF solution of 5 μg/ml prepared in coupling buffer (50 mM sodium acetate pH 4.0) was subsequently injected until 200 R.U. was immobilised. Next, the surface immobilisation was blocked by injection of 1 M ethanolamine hydrochloride for 7 min. As a reference, the surface in another flow cell was used and treated only with EDC, NHS, and ethanolamine. Data for the rmMIF-ISVD interaction were collected in the format of a kinetic titration (27). […] Analyte injections were performed with association phases of 180 s and a dissociation phase of 600 s. This was followed by 5 pulses of 15 μl regeneration buffer (HBS+100 mM NaOH). Prior to data analysis, reference and zero concentration data were subtracted from the sensorgrams. The data were analyzed with a 1:1 Langmuir binding model (27). Data for the rhMIF-ISVD interaction were collected as described elsewhere (28) and analyzed with a 1:1 Langmuir binding model.

T1 sequence (P14174 2-115): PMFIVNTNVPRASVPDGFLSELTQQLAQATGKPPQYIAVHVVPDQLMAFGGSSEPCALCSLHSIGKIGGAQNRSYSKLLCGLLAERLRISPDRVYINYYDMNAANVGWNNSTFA

Kd [nM] | Binder
35 | B1
2.96 | B2
16.5 | B3
27.5 | B4
166 | B5
9.41 | B6
80.3 | B7
41.2 | B8
37.8 | B9
64.5 | B10

Molecular target: T1, recombinant human Macrophage Migration …
Assay: SPR (summary in the discussion)

binding result | Binder
binds | B11
